According to article PMC9605714:

Target: SUMOylated Hsp82p (Hsp82p^K178C crosslinked with BMOE to Smt3p^Cys at position 178) (S. cerevisiae) (UniProt P02829)

B1: 6xHisMyc-tagged Aha1p (natural protein)
chain: MVVNNPNNWHWVDKNCIGWAKEYFKQKLVGVEAGSVKDKKYAKIKSVSSIEGDCEVNQRKGKVISLFDLKITVLIEGHVDSKDGSALPFEGSINVPEVAFDSEASSYQFDISIFKETSELSEAKPLIRSELLPKLRQIFQQFGKDLLATHGNDIQVPESQVKSNYTRGNQKSSFTEIKDSASKPKKNALPSSTSTSAPVSSTNKVPQNGSGNSTSIYLEPTFNVPSSELYETFLDKQRILAWTRSAQFFNSGPKLETKEKFELFGGNVISELVSCEKDKKLVFHWKLKDWSAPFNSTIEMTFHESQEFHETKLQVKWTGIPVGEEDRVRANFEEYYVRSIKLTFGFGAVL
An apparent binding affinity (K app) from Aha1p titration into ATPase reactions of 1 uM Hsp82p form (PK/LDH regenerating system) of 0.31 µM was found for B1 in this work.
